B1: N-terminally truncated APE1 including only Cys 99 with all other Cys residues mutated to Ala (40APE1 C99) (domain or fragment, human, UniProt P27695 41-318, looked up)
chain: GPALYEDPPDQKTSPSGKPATLKIASWNVDGLRAWIKKKGLDWVKEEAPDILALQETKCSENKLPAELQELPGLSHQYWSAPSDKEGYSGVGLLSRQAPLKVSYGIGDEEHDQEGRVIVAEFDSFVLVTAYVPNAGRGLVRLEYRQRWDEAFRKFLKGLASRKPLVLAGDLNVAHEEIDLRNPKGNKKNAGFTPQERQGFGELLQAVPLADSFRHLYPNTPYAYTFWTYMMNARSKNVGWRLDYFLLSHSLLPALADSKIRSKALGSDHAPITLYLAL
modifications: Cys 99 oxidised with 1 mM diamide before the reaction with TRXC32

Columns and labels:
[1] = target: thioredoxin mutant including only C32 (TRXC32) (UniProt P10599); test: cross-linking
SEC = target: the molecule itself; test: SEC

Row | Molecule | stoichiometry N [1] | binding result (SEC)
1 | thioredoxin mutant including only C32 (TRXC32) (from UniProt P10599 1-105) (enzyme) | 2 | –
2 | B1 | – | binds
